For one series, the target named is T1, MurAA^A149E (Enterococcus faecium, UniProt A0A133CTP6, A149E).
T1 construct: gene murA; full-length
Kind of series: microscale thermophoresis in the presence of UDP-GlcNAc. It is filed as binding. (In general: In MST a laser heats a spot of the sample, and binding alters the fluorescence response.)

Series [1] has as its target T2, MurAA (Enterococcus faecium, UniProt A0A133CTP6).
T2 construct: gene murA; full-length
The series is described as follows: ([…] Å); MST in the presence of UDP-GlcNAc. It is filed as binding.

Series [2] deals with T2, MurAA. Kind of series: X-ray crystal structure ([…] Å), co-purified ligand, weak/partial density. It is filed as binding.
Series [3] deals with Enterococcus faecium MurG (Enterococcus faecium) (UniProt Q3Y2H8). The series is described as follows: MST; 50 nM His-MurG labelled with RED-tris-NTA, serial dilution of MurAA^WT (402 uM to 12.3 nM) or MurAA^A149E (69.9 uM to 2.13 nM); 20 mM Hepes pH 7.5, 150 mM NaCl, 0.05% Tween; Monolith NT.115; triplicate.
Series [4] deals with C=C(OP(=O)(O)O)C(=O)O. The series is described as follows: purified protein. Conditions: covalently bound within the active site at Cys119.
The test system of series [5] is C=C(OP(=O)(O)O)C(=O)O. The series is described as follows: steady-state kinetics (Km), EnzChek phosphate assay. It is filed as biochemical, Enterococcus faecium.

Usually Kd stands for a measure of binding affinity in units of concentration. As usually defined, the Km is the concentration of substrate that gives half-maximal velocity. For orientation: kcat means the maximal rate divided by the concentration of active sites.

As for `C[C@@H]1O[C@@H]1P(=O)(O)O` [FOS, fosfomycin], the Kd on MurAA^A149E was 470 ± 60 nM; on MurAA [1], 1870 ± 670 nM.

`CC(=O)N[C@H]1[C@@H](OP(=O)(O)OP(=O)(O)OC[C@H]2O[C@@H](n3ccc(=O)[nH]c3=O)[C@H](O)[C@@H]2O)O[C@H](CO)[C@@H](O)[C@@H]1O[C@H](C)C(=O)O` [UDP-MurNAc]: the “X-ray crystal structure (2.65 Å), co-purified ligand, weak/partial density” value at MurAA [2] was “Cys119-PEP adduct and UDP–MurNAc at the interface of two domains in E. faecium MurAA”. On to “Enterococcus faecium MurAA, wildtype (UDP-N-acetylglucosamine enolpyruvate transferase) (enzyme)”, for which, in series [3], the Kd came to 27700 nM. On the same count and under the same terms, to “Enterococcus faecium MurAA^A149E (enzyme)” belongs 1720 nM. Take MurAA (Enterococcus faecium): in the series on C=C(OP(=O)(O)O)C(=O)O [4], the Km is 6.35 ± 0.88 µM and the kcat stood at 1.81 ± 0.06 s⁻¹. Take “MurAA^A149E (Enterococcus faecium; A149E)”: in the series with C=C(OP(=O)(O)O)C(=O)O [5], the Km was 7.26 ± 1.05 µM and the kcat was found to be 1.04 ± 0.04 s⁻¹.

The record behind these values is article PMC9975281, “Enolpyruvate transferase MurAA^A149E, identified during adaptation of Enterococcus faecium to daptomycin, increases stability of MurAA–MurG interaction” (The Journal of Biological Chemistry, 2023).
